Broadly, the Kd is a measure of binding affinity in units of concentration. The low end stands for a tighter complex, the high end for a looser complex.

The target in test [1] is WW1 domain of human YAP2 (residues 171-205) (human) (UniProt P46937). Kind of test: ITC.
Test [2] concerns the target WW2 domain of human YAP2 (residues 230-264) (human) (UniProt P46937). In words: ITC. (In general: ITC needs no label: the signal is the heat of the interaction.)

WW1 domain of human YAP2 (residues 171-205) (human), sequence (P46937 171-205): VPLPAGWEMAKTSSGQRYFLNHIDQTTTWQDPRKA
WW2 domain of human YAP2 (residues 230-264) (human), sequence (P46937 230-264): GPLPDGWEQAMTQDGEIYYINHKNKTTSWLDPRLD

In test [1], “ErbB4_PY3 peptide, alanine mutant PY3_A+2” gave a dH of -12.7 kcal/mol. In test [2], this substance registered a Kd of 126 µM and a dH of -10.1 kcal/mol.

Regarding “ErbB4_PY3 peptide, alanine mutant PY3_A+6”, the figures for the Kd in test [1] and in test [2] were 36 µM and 85 µM, respectively. Moreover, the results for the dH in test [1] and in test [2] were -10.3 kcal/mol and -9.06 kcal/mol, respectively.

Take “ErbB4_PY3 peptide, alanine mutant PY3_A-1”: in test [1], the Kd was 70 µM and the dH was -15.9 kcal/mol. Besides, in test [2], the Kd came out at 110 µM and the dH is -10.7 kcal/mol.

With “ErbB4_PY3 peptide, alanine mutant PY3_A-3”, the values for the equilibrium dissociation constant (Kd) in test [1] and in test [2] were 46 µM and 62 µM, respectively. In addition, the values for the dH in test [1] and in test [2] were -16.9 kcal/mol and -10.3 kcal/mol, respectively.

Regarding “ErbB4_PY3 peptide, alanine mutant PY3_A-2”, in test [1], the Kd is 45 µM and the dH is -16.1 kcal/mol. Moreover, in test [2], the Kd stood at 83 µM and the dH was -13.1 kcal/mol.

In the case of “ErbB4_PY3 peptide, alanine mutant PY3_A+5”, the Kd in test [1] came to 15 µM; in test [2], 46 µM. Moreover, the dH in test [1] and in test [2] was -14.6 kcal/mol in each case.

In test [1], “ErbB4_PY3 peptide, wildtype (12-mer with the PY3 PPXY motif of the ICD of human ErbB4)” returned a Kd of 31 µM and a dH of -13.3 kcal/mol. In test [2], this substance displayed a dissociation constant Kd of 56 µM and a dH of -7.72 kcal/mol.

“ErbB4_PY3 peptide, alanine mutant PY3_A+4”: in test [1], the Kd was 53 µM. The results for the dH in test [1] and in test [2] were -9.8 kcal/mol and -8.61 kcal/mol, respectively.

With “ErbB4_PY2 peptide (12-mer with the PY2 PPXY motif of the ICD of human ErbB4)”, in test [1], the Kd amounted to 84 µM and the dH was -2.94 kcal/mol. In test [2], the Kd came to 116 µM and the dH is -4.23 kcal/mol.

Turning to “ErbB4_PY1 peptide (12-mer with the PY1 PPXY motif of the ICD of human ErbB4)”, the Kd in test [1] turned out to be 113 µM. In addition, the values for the dH in test [1] and in test [2] were -6.14 kcal/mol and -3.9 kcal/mol, respectively.
